This is an account of results in patent US20220112288A1 (published 2022).

Positions count from the first letter of the chain named. Where only a bound is given, the exact number is not on record here.

The labels stand for the following.
B1: 75110_05G15A (antibody, V domains shown)
VH: QVQLQESGPGLVKPSQTLSLTCTVSGGSISSGGYFWSWIRQHPGKGLEWIGCIYYSGSTYYIPSLKSRVTISVDTSKNQFSLKLRSVTAADTAVYYCARDGYDYWYFDLWGRGTLVTVSS
VL: not shown
B2: 75110_03I08A (antibody, V domains shown)
VH: QVQLQESGPGLVKPSETLSLTCTVSGGSISSYYWSWIRQPPGKGLEWIGYIYYSGSTNYNPSLKSRVTISVDTSKNQFSLKLSSVTAADTAVYYCAREGEQWFYGLDVWGQGTTVTVSS
VL: EIVLTQSPGTLSLSPGERATLSCRASQSVSSTYLAWYQQKPGQAPRLLIYGSSSRATGIPDRFSGSGSGTDFTLTISRLEPEDFAVYYCQQYGNSFPITFGQGTRLEIK
notes: Tested as non-clonal hybridoma supernatant (AlivaMab Mouse Kappa), detected with anti-mouse Fc and anti-human kappa
B3: 75110_10K21A (antibody, V domains shown)
VH: EVQLVESGGGLVQPGGSLRLSCAASGFTFSSYWMTWVRQAPGKGLEWVANIKQDGSEKYYVDSVKGRFTISRDNAKNSLYLQMNSLRAEDTAVYYCVRDRYDALDIWGQGTMVTVSS
VL: AIQMTQSPSSLSASVGDRVTITCRASQGIRNDLNWYQQKPGKAPKLLIYAASSLQSGVPSRFSGSGSGTDFTLTISSLQAEDFATYYCLKDYNYPYTFGQGTKLEIK
notes: Tested as non-clonal AlivaMab Mouse hybridoma supernatant (human variable regions and human kappa, mouse Fc); also called ADS75110 non-clonal supernatant 10K21A
B4: 75110_01N04A (antibody, V domains shown)
VH: EVQLVESGGGLVQPGGSLRLSCAASGFTFSNYDMHWVRQATGKGLEWVSTIGTAGDTYYPGSVKGRFTISRENAKNSLYLQMNSLRAGDTAVYYCARGGDFYYGLDVWGQGTTVTVSS
VL: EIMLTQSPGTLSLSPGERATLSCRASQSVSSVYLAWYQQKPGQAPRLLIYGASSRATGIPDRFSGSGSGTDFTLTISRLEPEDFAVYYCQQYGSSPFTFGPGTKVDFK
notes: Tested as non-clonal AlivaMab Mouse hybridoma supernatant (human variable regions and human kappa, mouse Fc); also called ADS75110 non-clonal supernatant 01N04A
B5: 75110_07E04A (antibody, V domains shown)
VH: B4 VH with A24V, N31S, N76K, S77F, D100Y, F101Y, L105M
VL: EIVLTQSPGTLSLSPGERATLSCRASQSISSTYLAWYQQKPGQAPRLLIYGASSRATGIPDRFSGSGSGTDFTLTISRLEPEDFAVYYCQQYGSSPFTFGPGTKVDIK
notes: Tested as non-clonal AlivaMab Mouse hybridoma supernatant (human variable regions and human kappa, mouse Fc); also called ADS75110 non-clonal supernatant 07E04A
B6: 75110_04F22A (antibody, V domains shown)
VH: B4 VH with N31S, M34I, D100Y, F101Y, L105M
VL: EIVLTQSPGTLSLSPGERATLSCRASQSVYSSYLAWYQQKPGQAPRLLIYGASSRATGIPDRFSGSGSGTDFTLTISRLEPEDFAVYYCQQFGTSPFTFGPGTKVDIK
notes: Tested as non-clonal AlivaMab Mouse hybridoma supernatant (human variable regions and human kappa, mouse Fc); also called ADS75110 non-clonal supernatant 04F22A
B7: 75110_04P06A (antibody, V domains shown)
VH: B4 VH with F101Y, L105M
VL: B6 VL with G9D, V29L, Y30S, S32V, S77N, A85V, F92Y, T94S
notes: Tested as non-clonal AlivaMab Mouse hybridoma supernatant (human variable regions and human kappa, mouse Fc); also called ADS75110 non-clonal supernatant 04P06A
B8: 75110_05K11A (antibody, V domains shown)
VH: B4 VH with N31S, A40P, G61A, D100F, F101Y, L105M
VL: B6 VL with A19V, Y30S, S31N, S32T, A85V, F92H, T94S
notes: Tested as non-clonal AlivaMab Mouse hybridoma supernatant (human variable regions and human kappa, mouse Fc); also called ADS75110 non-clonal supernatant 05K11A
B9: 75110_10N21A (antibody, V domains shown)
VH: B4 VH with N31S, A40V, D100Y, F101Y, L105M
VL: B6 VL with V29F, Y30I, E80D, F92S, T94N, I107V
notes: Tested as non-clonal AlivaMab Mouse hybridoma supernatant (human variable regions and human kappa, mouse Fc); also called ADS75110 non-clonal supernatant 10N21A
B10: 75110_13C07A (antibody, V domains shown)
VH: B4 VH with G10V, I69L, N83H, G99A, D100Y, F101G, L105M
VL: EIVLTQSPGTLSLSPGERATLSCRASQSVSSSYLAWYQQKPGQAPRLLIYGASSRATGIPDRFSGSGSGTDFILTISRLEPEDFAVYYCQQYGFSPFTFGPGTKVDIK
notes: Tested as non-clonal AlivaMab Mouse hybridoma supernatant (human variable regions and human kappa, mouse Fc); also called ADS75110 non-clonal supernatant 13C07A
B11: 75110_14H13A (antibody, V domains shown)
VH: B4 VH with E72K, N83I, F101Y, L105M
VL: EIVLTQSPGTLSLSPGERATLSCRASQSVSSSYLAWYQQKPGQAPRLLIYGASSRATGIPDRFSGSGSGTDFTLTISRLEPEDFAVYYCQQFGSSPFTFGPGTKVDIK
notes: Tested as non-clonal AlivaMab Mouse hybridoma supernatant (human variable regions and human kappa, mouse Fc); also called ADS75110 non-clonal supernatant 14H13A
B12: 75110_08H06A (antibody, V domains shown)
VH: B4 VH with D100Y, F101D, L105M
VL: B6 VL with V29I, Y30T, S32I, Q38R, F92Y, T94S
notes: Tested as non-clonal AlivaMab Mouse hybridoma supernatant (human variable regions and human kappa, mouse Fc); also called ADS75110 non-clonal supernatant 08H06A
B13: 75110_02I16A (antibody, V domains shown)
VH: QVQLQQWGAGLLKPSETLSLTCDVYGGSFSGYYWTWIRQPPGKGLEWIGEINHSGTTNSNPSLKSRVTISVDTSKSQFSLRLSSVTAADTAVYFCTRELNWFDPWGQGTLVTVSS
VL: DIQMTQSPSSVSASVGDRVTITCRASQDIANWLAWYQQKPGKAPQLLIYAASSLLGGVPSRFSGSGSGADFTLTISSLHPEDFATYYCQQANSFPYTFGQGTKLEIK
notes: Tested as non-clonal AlivaMab Mouse hybridoma supernatant (human variable regions and human kappa, mouse Fc); also called ADS75110 non-clonal supernatant 02I16A
B14: 75110_01H18A (antibody, V domains shown)
VH: QVQLQQWGAGLLKPSETLSLTCAVYGGSFSGYYWSWIRQSPGKGLEWIGEINQSGSTNYNPSLKSRVTISVDTSKNQFSLKLSSVTAADTAVYYCARVINWFDSWGQGTLVTVSS
VL: DIQMTQSPSSVSASVGDRVTITCRASQGISSWLAWYQQKPGKAPKLLIYAASSFQSGVPSRFSGSGSGTDFTLTISSLQTEDFATYYCQQANSFPYTFGQGTRLEIK
notes: Tested as non-clonal AlivaMab Mouse hybridoma supernatant (human variable regions and human kappa, mouse Fc); also called ADS75110 non-clonal supernatant 01H18A

The first assay concerns the target T1, human CD4 on cells (SKW3 cells; human PBMCs) (human, UniProt P01730 26-458).
T1 construct: whole, on cells; SKW3 CD4 knockout cells served as the negative cell line in the primary screen; also called hCD4; huCD4
Kind of assay: FACS confirmation, supernatant on human PBMCs.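 Note: flow cytometry with hybridoma supernatants incubated on human PBMCs for 30 min at 4 °C.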
Regarding B1, the “PBMCs CD4+ gate RL1 binding, anti-mFc 647” value worked out at 147000 and the “PBMCs CD4+ percent bound of viable” value came to 32%.

Another assay deals with T1, human CD4 on cells (SKW3 cells; human …). Kind of assay: FACS confirmation, supernatant on SKW3 cells; background gMFI 2500.
Regarding B1, the “gMFI on SKW3 WT, anti-hu Kappa FITC” value turned out to be 6000 gMFI.

The next assay shares this target. Nature of the assay: FACS confirmation, supernatant on SKW3 cells; background gMFI 3300.
Take B1: the “gMFI on SKW3 WT, anti-mFc 647” value is 28600 gMFI.

Another assay has the same target. Kind of assay: FACS primary screen, hybridoma supernatant, SKW3 vs SKW3 CD4 KO cells.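 Note: flow cytometry on mixed SKW3 and dye-labeled SKW3 CD4 knockout cells after 30 min at 4 °C with supernatant, ratio of binding signal on parental versus knockout cells.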
For B1, the “SKW3 WT vs KO ratio, anti-hKappa-FITC” value was determined as 1.5 and the “SKW3 WT vs KO ratio, anti-mFc-647” value came to 2.8.

The next assay concerns the target T2, human CD4 on cells (SKW3 cells; human PBMCs) (human, UniProt P01730 26-458).
T2 construct: whole, on cells; SKW3 CD4 knockout cells served as the negative cell line for the WT vs KO ratios; also called hCD4; SKW3 WT
Kind of assay: FACS confirmation, supernatant on human PBMCs, anti-mFc 647, CD4+ gate.
Regarding B2, the “CD4+ gate RL1 Binding” value was determined as 338000.

The next assay concerns the target T1, human CD4 on cells (SKW3 cells; human …). Kind of assay: FACS binning on SKW3 cells; competitor OKT4a; background 5000, max binding 35000.
Take B1: the “OKT4a signal (anti-hu A647) with supernatant” value was determined as 42300.

For a further assay, the target named is T2, human CD4 on cells (SKW3 cells; human …). Nature of the assay: FACS confirmation, supernatant on SKW3 WT cells, anti-mFc 647 (Bkrd gMFI = 3300).
The molecule B2 gave a gMFI of 28000 gMFI.

For the next assay, the target named is T1, human CD4 on cells (SKW3 cells; human …). Kind of assay: FACS binning on SKW3 cells; competitor OKT4-A488; background 2163, max binding 8200.
On to B1, for which the “OKT4-A488 signal with supernatant” value came out at 8080.

A further assay has as its target T2, human CD4 on cells (SKW3 cells; human …). Kind of assay: FACS confirmation, supernatant on human PBMCs, anti-mFc 647, percent of viable cells.
As to B2, the “CD4+ Percent Bound of Viable” value came to 32%.

A further assay deals with T3, Recombinant human CD4 (R&D Systems, Cat. 10327-CD) (human, UniProt P01730 26-390, limits assumed).
T3 construct: Bought protein; also called huCD4
Nature of the assay: BLI (Octet Red 384), non-clonal supernatant captured on AMC sensors, 100 nM human CD4. Background: BLI is a label-free optical method that tracks binding on a fibre tip over time.
Regarding B3, the Response came out at 0.0687.
On the same count and under the same terms, to B4 belongs 0.06.
On to B5, for which the Response is 0.01.
Still for that read-out and setting: to B6 belongs 0.05.
In the case of B7, the Response came out at 0.06.
Same read-out and setting: the value for B8 was 0.05; that for B9 was 0.0658.
Take B10: the Response was 0.0171.
B11: the Response stood at 0.14.
The same measure, in the same setting: to B12 belongs 0.06; to B13, 0.0373.
As to B14, the Response came out at 0.0657.

The next assay has as its target T2, human CD4 on cells (SKW3 cells; human …). Kind of assay: FACS confirmation, supernatant on SKW3 WT cells, anti-hu Kappa FITC (Bkrd gMFI = 2500).
Turning to B2, the gMFI was 6120 gMFI.

A further assay concerns the target T1, human CD4 on cells (SKW3 cells; human …). Kind of assay: FACS binning on SKW3 cells; competitor RPA-T4-PE-Dazzle 594; background 783, max binding 15000.
For B1, the “RPA-T4-PE-Dazzle 594 signal with supernatant” value is 15800.

Another assay concerns the target T2, human CD4 on cells (SKW3 cells; human …). Nature of the assay: FACS primary screen, non-clonal hybridoma supernatant; SKW3 WT vs SKW3 CD4 KO cells, anti-mFc-647.
As to B2, the “SKW3 WT vs KO anti-mFc-647” value came to 7.6 fold.

Another assay deals with T3, Recombinant human CD4 (R&D Systems, …). Nature of the assay: BLI (Octet Red 384), non-clonal supernatant captured on AMC sensors, 100 nM human CD4, 1:1 local fit.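 Note: hybridoma antibodies from supernatants, one CD4 concentration giving single-point kinetics per supernatant, with curves fitted over both association and dissociation phases.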
As to B3, the Kd was 2.66 nM, the koff was 0.000362 s⁻¹ and the kon turned out to be 136000 M⁻¹ s⁻¹.
The matching figures for B4: 2.2 nM, 4.8e-05 s⁻¹ and 22000 M⁻¹ s⁻¹.
Regarding B5, the Kd amounted to 11000 nM, the koff stood at 0.013 s⁻¹ and the on-rate constant (kon) came to 1200 M⁻¹ s⁻¹.
The matching figures for B6: less than 0.001 nM, less than 1e-07 s⁻¹ and 15000 M⁻¹ s⁻¹.
B7: the Kd was less than 0.001 nM, the off-rate (koff) is less than 1e-07 s⁻¹ and the kon was 12000 M⁻¹ s⁻¹.
In the same order, the values of B8 are less than 0.001 nM, less than 1e-07 s⁻¹ and 12000 M⁻¹ s⁻¹.
The matching figures for B9: 0.873 nM, 0.000133 s⁻¹ and 152000 M⁻¹ s⁻¹.
The matching figures for B10: 84 nM, 0.0182 s⁻¹ and 217000 M⁻¹ s⁻¹.
In the case of B11, the Kd is less than 0.001 nM, the koff was less than 1e-07 s⁻¹ and the kon was 100000 M⁻¹ s⁻¹.
The matching figures for B12: less than 0.001 nM, less than 1e-07 s⁻¹ and 120000 M⁻¹ s⁻¹.
In the case of B13, the Kd was 3.9 nM, the koff was 0.0012 s⁻¹ and the kon is 308000 M⁻¹ s⁻¹.
The matching figures for B14: 0.902 nM, 0.000148 s⁻¹ and 165000 M⁻¹ s⁻¹.

A further assay has as its target T2, human CD4 on cells (SKW3 cells; human …). Kind of assay: FACS primary screen, non-clonal hybridoma supernatant; SKW3 WT vs SKW3 CD4 KO cells, anti-hKappa-FITC.
For the molecule B2, the “SKW3 WT vs KO anti-hKappa-FITC” value was 2.2 fold.

A further assay deals with T4, huCD4-HIS (human, UniProt P01730 26-390, limits assumed).
T4 construct: the ELISA is not described in the text of this stretch; also called human CD4-HIS
Nature of the assay: ELISA binning; competitor ibalizumab; 100 ng/mL huCD4-HIS, anti-HIS HRP; background 45, max binding 3000000. For orientation: An ELISA detects its analyte on a solid surface through an enzyme-linked reagent.
Consider B1, for which the “Ibalizumab ELISA binning signal” value was found to be 1.7e+06.

Usually Kd stands for the concentration at which binding is half-saturated. By koff is commonly meant the rate constant with which the complex falls apart. Broadly, the kon is a measure of how fast the partners come together.
